Assay results as given in IntAct's records for PubMed 16278218.

B1: Heat shock factor protein 1 (Homo sapiens), Q00613 (parent)
chain: MDLPVGPGAAGPSNVPAFLTKLWTLVSDPDTDALICWSPSGNSFHVFDQGQFAKEVLPKYFKHNNMASFVRQLNMYGFRKVVHIEQGGLVKPERDDTEFQHPCFLRGQEQLLENIKRKVTSVSTLKSEDIKIRQDSVTKLLTDVQLMKGKQECMDSKLLAMKHENEALWREVASLRQKHAQQQKVVNKLIQFLISLVQSNRILGVKRKIPLMLNDSGSAHSMPKYSRQFSLEHVHGSGPYSAPSPAYSSSSLYAPDAVASSGPIISDITELAPASPMASPGGSIDERPLSSSPLVRVKEEPPSPPQSPRVEEASPGRPSSVDTLLSPTALIDSILRESEPAPASVTALTDARGHTDTEGRPPSPPPTSTPEKCLSVACLDKNELSDHLDAMDSNLDNLQTMLSSHGFSVDTSALLDLFSPSVTVPDMSLPDLDSSLASIQELLSPQEPPRPPEAENSSPDSGKQLVHYTAQPLFLLDPGSVDTGSNDLPVLFELGEGSYFSEGDGFAEDPTISLLTGSEPPKAKDPTVS

Variants of: B1
Conditions: with mapk2_human MAPKAPK2, P49137
Chain of mapk2_human MAPKAPK2, P49137 (P49137 whole entry, looked up): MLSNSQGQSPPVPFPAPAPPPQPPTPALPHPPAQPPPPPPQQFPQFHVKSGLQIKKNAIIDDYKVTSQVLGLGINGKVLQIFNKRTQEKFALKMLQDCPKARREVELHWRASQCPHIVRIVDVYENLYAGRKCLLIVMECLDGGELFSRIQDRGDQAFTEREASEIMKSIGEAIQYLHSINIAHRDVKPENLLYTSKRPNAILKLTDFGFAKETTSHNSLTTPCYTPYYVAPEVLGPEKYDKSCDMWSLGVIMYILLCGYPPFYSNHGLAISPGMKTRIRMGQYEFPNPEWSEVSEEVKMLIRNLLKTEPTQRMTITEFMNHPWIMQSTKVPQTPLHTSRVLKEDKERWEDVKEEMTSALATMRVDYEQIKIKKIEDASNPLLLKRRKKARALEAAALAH

| effect of a mutation on the interaction | Variant |
| --- | --- |
| decreasing interaction | S121D |
| increasing interaction | S121A |
